Where a chain is given by its changes, count along the chain named. “And” between values parts separate entries of the source, which are not always exact repeats. Identical values can stand only once.
Columns and labels:
Rabbit = target: T1, Rabbit; assay: ELISA
T1 construct: also called rabbit EphA4 extracellular domain-SEAP-His protein
Method: (§1) For the anti-human EphA4 monoclonal antibodies produced in Example 1, evaluation of binding activity to various EphA4 was performed according to the following steps. Mouse anti-6-His antibodies (R&D) were coated on the wells of a 96-well plate (Thermo […]). After incubating at room temperature for 1 hour, the wells were blocked at 4° C. overnight with 1% Block Ace (KAC). After washing three times with 0.02% Tween 20/PBS, the wells were seeded with mouse EphA4 extracellular domain-SEAP-His protein, rat EphA4 extracellular domain-SEAP-His protein, rabbit EphA4 extracellular domain-SEAP-His protein, monkey EphA4 extracellular domain-SEAP-His protein, human EphA4 extracellular domain-SEAP-His protein, or SEAP-His protein (final concentration 1 nM), and this was incubated at room temperature for 1 hour. After washing three times, anti-human EphA4 rabbit monoclonal antibody (10 pg/mL) was added, and this was incubated at room temperature for about 1 hour. After washing three times, horseradish peroxidase labeled goat anti-rabbit IgG polyclonal antibody (abcam) was added, and this was incubated at room temperature for 1 hour. After washing three times, TMBZ (3,3′,5,5′-tetramethylbenzidine, KPL) solution was added to the wells, and this was incubated for 3 minutes at room temperature. Equal amounts of quenching solution (2 N H₂SO₄, FUJIFILM Wako) were added to the wells, and absorbance at 450 nm and 650 nm were read with a microplate reader (Thermo […]).

Rat = target: T2, Rat; assay: ELISA
T2 construct: also called rat EphA4 extracellular domain-SEAP-His protein
Method: as §1

Mouse = target: T3, Mouse; assay: ELISA
T3 construct: also called mouse EphA4 extracellular domain-SEAP-His protein
Method: as §1

SEAP = target: T4, SEAP; assay: ELISA
T4 construct: negative control antigen; also called SEAP-His protein
Method: as §1

[1] = target: T5, human EphA4 extracellular domain-SEAP-His protein (human); assay: ELISA
Method: as §1

[2] = target: T6, monkey EphA4 extracellular domain-SEAP-His protein (monkey); assay: ELISA
T6 construct: the fusion as a whole has none; not shown: SEAP-His part
Method: as §1

FN1 = assay: ELISA
Method: (§2) For the anti-human EphA4 monoclonal antibodies produced in Example 1, evaluation of binding activity to various EphA4 was performed according to the following steps. Mouse anti-6-His antibodies (R&D) were coated on the wells of a 96-well plate (Thermo […]). After incubating at room temperature for 1 hour, the wells were blocked at room temperature for 1 hour with 1% Block Ace (KAC). After washing three times with 0.02% Tween 20/PBS, the wells were seeded with human EphA4 extracellular domain-MBP-His protein, human EphA4 ligand binding domain-MBP-His protein, human EphA4 fibronectin III-type domain 1-MBP-His protein, human EphA4 fibronectin III-type domain 2-MBP-His protein, or MBP-His protein (final concentration 1 nM), and this was incubated at room temperature for 1 hour. After washing three times, anti-human EphA4 rabbit monoclonal antibody (10 pg/mL) was added, and this was incubated at room temperature for 1 hour. After washing three times, horseradish peroxidase labeled goat anti-rabbit IgG polyclonal antibody (abcam) was added, and this was incubated at room temperature for 1 hour. After washing three times, TMBZ (3,3′,5,5′-tetramethylbenzidine, KPL) solution was added to the wells, and this was incubated for four and a half minutes at room temperature. Equal amounts of quenching solution (2 N H₂SO₄, FUJIFILM Wako) were added to the wells, and absorbance at 450 nm and 650 nm were read with a microplate reader (Thermo […]).

FN2 = assay: ELISA
Method: as §2

MBP = assay: ELISA
Method: as §2

[3] = target: T7, human EphA4 extracellular domain-MBP-His protein (human); assay: ELISA
T7 construct: also called human EphA4 extracellular domain (ECD); Human EphA4 extracellular domain-MBP-His 10
Method: as §2

[4] = target: human EphA4 ligand binding domain-MBP-His protein (human, UniProt P54764 20-209; P0AEX9 29-392 = MBP); assay: ELISA
Method: as §2

[5] = target: T5, human EphA4 extracellular …; assay: ELISA; remark: listed apart in the source
[6] = target: T6, monkey EphA4 extracellular …; assay: ELISA; remark: listed apart in the source
[7] = target: T7, human EphA4 extracellular …; assay: SPR Biacore T200, EphA4 ECD-MBP-His captured by anti-His antibody, antibody as analyte, 1:1 model
Method: (§3) The binding affinity of KPEP11_04, KPEP11_08, KPEP11_10, and KPEP11_18 against human EphA4 was determined by the surface plasmon resonance method (SPR method) employing Biacore T200 (Cytiva). First, an anti-His antibody (Cytiva, 28-9950-56) was diluted to 10 μg/mL with the immobilizing buffer (10 mM sodium acetate, pH 4.5), and immobilized onto a sensor chip CM5 according to the protocol attached to Biacore T200. Immobilization was performed by the amine coupling method employing N-hydroxysuccinimide (NHS) and N-ethyl-N′-(3-dimethylaminopropyl) carbodiimide hydrochloride salt (EDC), and ethanolamine was employed for blocking (sensor chips or immobilizing reagents were all from Cytiva). Human EphA4 extracellular domain-MBP-His 10 was diluted with a running buffer HBS-EP+ (Cytiva), and pumped onto a flow cell for 120 seconds to allow capturing (captured amount of about 3 RU). […] At the end of each observation, 10 mM glycine hydrochloric acid pH 1.5 (60 seconds) and 3 M MgCl₂ (30 seconds) were added to regenerate the sensor chips. Fitting analysis by the 1:1 binding model employing the BIA evaluation software attached to the system was performed against the binding reaction curves obtained to calculate the binding affinity against human EphA4 (KD=kd/ka). The experiment described above was carried out three times, and the mean was calculated for each parameter.

[8] = target: T7, human EphA4 extracellular …; assay: SPR Biacore T200, EphA4 ECD-MBP-His captured by anti-His antibody, antibody as analyte, 1:1 model, mean of three
Method: as §3

[9] = target: T7, human EphA4 extracellular …; assay: SPR Biacore T200, EphA4 ECD-MBP-His captured by anti-His antibody, antibody as analyte, 1:1 model, mean of three (exponent printed as -90, read as -09); mean of three experiments
Method: as §3

T5 sequence (chain, as listed by the source limits assumed): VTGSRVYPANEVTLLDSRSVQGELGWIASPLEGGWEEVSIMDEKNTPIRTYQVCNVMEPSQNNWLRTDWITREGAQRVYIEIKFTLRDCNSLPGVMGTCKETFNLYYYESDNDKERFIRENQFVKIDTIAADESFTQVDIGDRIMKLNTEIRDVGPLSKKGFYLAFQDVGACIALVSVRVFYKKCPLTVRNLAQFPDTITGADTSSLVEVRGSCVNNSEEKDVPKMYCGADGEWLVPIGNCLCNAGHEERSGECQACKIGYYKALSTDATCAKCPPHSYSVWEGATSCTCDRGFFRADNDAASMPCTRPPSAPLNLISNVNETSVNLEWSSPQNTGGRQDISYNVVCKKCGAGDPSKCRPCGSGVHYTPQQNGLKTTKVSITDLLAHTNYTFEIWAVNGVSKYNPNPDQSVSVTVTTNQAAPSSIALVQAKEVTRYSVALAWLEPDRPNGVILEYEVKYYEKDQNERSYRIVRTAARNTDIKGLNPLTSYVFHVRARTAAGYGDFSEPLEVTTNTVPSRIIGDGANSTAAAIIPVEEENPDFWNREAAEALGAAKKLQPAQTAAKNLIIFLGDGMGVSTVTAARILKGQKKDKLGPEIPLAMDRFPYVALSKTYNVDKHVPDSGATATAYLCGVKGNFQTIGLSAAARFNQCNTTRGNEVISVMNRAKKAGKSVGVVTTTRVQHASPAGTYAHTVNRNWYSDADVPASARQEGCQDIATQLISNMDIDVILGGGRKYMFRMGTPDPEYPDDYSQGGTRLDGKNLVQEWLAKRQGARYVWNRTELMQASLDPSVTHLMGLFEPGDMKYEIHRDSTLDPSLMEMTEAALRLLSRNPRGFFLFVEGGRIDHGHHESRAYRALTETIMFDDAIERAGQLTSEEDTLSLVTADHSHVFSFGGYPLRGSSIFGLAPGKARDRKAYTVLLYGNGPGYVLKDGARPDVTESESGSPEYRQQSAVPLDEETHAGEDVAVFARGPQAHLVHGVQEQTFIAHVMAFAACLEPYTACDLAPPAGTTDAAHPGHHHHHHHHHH
T6 sequence (chain, as listed by the source): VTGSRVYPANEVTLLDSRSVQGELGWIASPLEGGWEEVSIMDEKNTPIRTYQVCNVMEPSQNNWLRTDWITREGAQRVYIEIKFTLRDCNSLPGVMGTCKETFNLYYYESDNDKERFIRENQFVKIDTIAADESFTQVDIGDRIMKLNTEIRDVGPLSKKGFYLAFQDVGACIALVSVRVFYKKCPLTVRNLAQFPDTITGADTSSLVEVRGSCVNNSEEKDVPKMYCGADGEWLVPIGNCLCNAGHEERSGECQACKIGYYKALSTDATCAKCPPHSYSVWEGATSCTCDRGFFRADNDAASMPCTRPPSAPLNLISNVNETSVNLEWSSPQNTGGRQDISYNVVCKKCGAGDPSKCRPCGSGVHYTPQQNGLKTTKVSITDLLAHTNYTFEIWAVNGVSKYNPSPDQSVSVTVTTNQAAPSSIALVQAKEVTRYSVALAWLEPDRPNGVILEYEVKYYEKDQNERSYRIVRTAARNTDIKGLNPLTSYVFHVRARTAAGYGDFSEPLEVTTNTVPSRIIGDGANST

B1: KPEP11_04 (antibody, V domains shown)
VH: QEQLKESGGRLVTPGGSLTLTCTVSGIDLSSYAMSWVRQAPEKGLEWIGFINMYGTYYASWAKGRFTISRTSTTVDLKVTSLTTEDTATYFCVRGGRSPDYDIVSGDIWGPGTLVTVSS
VL: YVMMTQTPSSVSEPVGGTVTIKCQASQNIYNSLAWYQQKPGQRPKLLIADASELASGVPQRFSGSGSGTQFTLTISDLECADAATYYCQSSSAGDSYVGGFGGGTEVVVKG
notes: Rabbit IgG/kappa; Used HRP-labeled as detection antibody in the sandwich ELISAs; also called anti-human EphA4 rabbit monoclonal antibody KPEP11_04; HRP-labeled KPEP11_04
absorbance (Rabbit): 0.039 | absorbance (Rat): 0.044 | absorbance (Mouse): 0.044 | absorbance (SEAP): 0.05 | absorbance [1]: 1.26 | absorbance [2]: 1.21 | absorbance (FN1): 0.225 | absorbance (FN2): 0.227 | absorbance (MBP): 0.267 | absorbance [3]: 1.41 | absorbance [4]: 1.33 | EC50 (read off the curve) [5]: ~0.01 nM | EC50 (read off the curve) [6]: ~0.01 nM | Kd [7]: 1.72 nM and 2.12 nM and 1.87 nM | koff [7]: 0.004 s⁻¹ and 0.00378 s⁻¹ and 0.00389 s⁻¹ | kon [7]: 2.33e+06 M⁻¹ s⁻¹ and 1.78e+06 M⁻¹ s⁻¹ and 2.08e+06 M⁻¹ s⁻¹ | koff [8]: 0.00389 s⁻¹ | kon [8]: 2.06e+06 M⁻¹ s⁻¹ | Kd [9]: 1.9 nM

B2: KPEP11_08 (antibody)
heavy: QSLEESGGRLVTPGTPLTLTCTVSGFSLSSYHMSWVRQAPGKGLEWIGIIYRSGNTYYANWAKGRFTISKTSTTVDLKITSPTTEDTATYFCARESSTFYGMDLWGPGTLVTVSSGAPKAPSVFPLAPCCGDTPSSTVTLGCLVKGYLPEPVTVTWNSGTLTNGVRTFPSVRQSSGLYSLSSVVSVTSSSQPVTCNVAHPATNTKVDKTVAPSTCSKPTCPPPELLGGPSVFIFPPKPKDTLMISRTPEVTCVVVDVSQDDPEVQFTWYINNEQVRTARPPLREQQFNSTIRVVSTLPITHQDWLRGKEFKCKVHNKALPAPIEKTISKARGQPLEPKVYTMGPPREELSSRSVSLTCMINGFYPSDISVEWEKNGKAEDNYKTTPAVLDSDGSYFLYNKLSVPTSEWQRGDVFTCSVMHEALHNHYTQKSISRSPGK
light: DPVLTQTASSVSAAVGGTVTINCQASQSVYGNNELAWYQQKPGQPPKLLIYTASSLASGVPSRFKGSGSGTEFTLTISDLECADAATYYCLGYKSDDYTFGGGTEVVVKGAPVAPTVLIFPPAADQVATGTVTIVCVANKYFPDVTVTWEVDGTTQTTGIENSKTPQNSADCTYNLSSTLTLTSTQYNSHKEYTCKVTQGTTSVVQSFNRGDC
notes: Rabbit IgG/kappa; Used HRP-labeled as detection antibody in the sandwich ELISAs; also called anti-human EphA4 rabbit monoclonal antibody KPEP11_08; HRP-labeled KPEP11_08
absorbance (Rabbit): 0.057 | absorbance (Rat): 0.065 | absorbance (Mouse): 0.071 | absorbance (SEAP): 0.072 | absorbance [1]: 1.15 | absorbance (FN1): 0.283 | absorbance (FN2): 0.265 | absorbance (MBP): 0.3 | absorbance [3]: 1.31 | absorbance [4]: 0.292 | EC50 (read off the curve) [5]: ~0.02 nM | EC50 (read off the curve) [6]: ~0.02 nM | Kd [7]: 1.51 nM and 1.67 nM and 1.36 nM | koff [7]: 0.00214 s⁻¹ | kon [7]: 1.42e+06 M⁻¹ s⁻¹ and 1.24e+06 M⁻¹ s⁻¹ and 1.58e+06 M⁻¹ s⁻¹ | Kd [8]: 1.51 nM | koff [8]: 0.00217 s⁻¹ | kon [8]: 1.44e+06 M⁻¹ s⁻¹

B3: KPEP11_10 (antibody)
heavy: B2 heavy
light: B2 light with D1A, P2I, V3K, L4M, A8P
notes: Rabbit IgG/kappa; Used coated or HRP-labeled in the sandwich ELISAs; also called anti-human EphA4 rabbit monoclonal antibody KPEP11_10; HRP-labeled KPEP11_10
absorbance (Rabbit): 0.091 | absorbance (Rat): 0.087 | absorbance (SEAP): 0.087 | absorbance [1]: 1.17 | absorbance [2]: 1.11 | absorbance (FN1): 0.329 | absorbance (FN2): 0.325 | absorbance (MBP): 0.334 | absorbance [3]: 1.35 | absorbance [4]: 0.34 | EC50 (read off the curve) [5]: ~0.02 nM | EC50 (read off the curve) [6]: ~0.02 nM | Kd [7]: 1.36 nM and 1.23 nM | koff [7]: 0.00196 s⁻¹ and 0.00198 s⁻¹ | kon [7]: 1.44e+06 M⁻¹ s⁻¹ and 1.58e+06 M⁻¹ s⁻¹ | Kd [8]: 1.3 nM | koff [8]: 0.00196 s⁻¹ | kon [8]: 1.52e+06 M⁻¹ s⁻¹

B4: KPEP11_18 (antibody, V domains shown)
VH: QSLEESGGRLVTPGTPLTLTCTISGFSLSSFYINWVRQAPGRGLEWIGIIYPDIDATDYASWVKGRFTISKTSTTVDLKITSPTTEDTATYFCARSDVDYYTTRLDLWGQGTLVTVSS
VL: DPMMTQTASPVSAAVGGTVSISCQSNKSVYSNWLSWFQQKPGQPPKLLIYGASTLASGVPSRFKGSGSGTQFTLTVSDVQCDDAATYFCLGGYRDNSDNAFGGGTEVVVKG
notes: Rabbit IgG/kappa; Used coated or HRP-labeled in the sandwich ELISAs; also called anti-human EphA4 rabbit monoclonal antibody KPEP11_18; HRP-labeled KPEP11_18
absorbance (Rabbit): 0.059 | absorbance (Rat): 0.067 | absorbance (SEAP): 0.054 | absorbance [1]: 1.23 | absorbance [2]: 1.18 | absorbance (FN1): 0.222 | absorbance [3]: 1.42 | absorbance [4]: 1.43 | EC50 (read off the curve) [5]: ~0.01 nM | EC50 (read off the curve) [6]: ~0.01 nM | Kd [7]: 0.416 nM and 0.382 nM | koff [7]: 0.00128 s⁻¹ and 0.00137 s⁻¹ and 0.00127 s⁻¹ | kon [7]: 3.06e+06 M⁻¹ s⁻¹ and 3.32e+06 M⁻¹ s⁻¹ and 3.44e+06 M⁻¹ s⁻¹ | Kd [8]: 0.389 nM | koff [8]: 0.00127 s⁻¹
